We go through 1 substance from paper PMC9271913.

The assay concerns the target Human Flag-tagged RER1 TP37_38AA mutant (human). Description: co-IP; SH-SY5Y and U251 cells co-transfected with Flag-tagged RER1 (wild type or mutant) and NEDD4-2-HA, with or without Tg (0.5 uM); gentle RIPA lysis buffer; anti-Flag or anti-HA on Protein A/G magnetic beads, 4°C overnight; immunoblot. (In general: Immunoblotting shows a protein as a band on a membrane.)

Human Flag-tagged RER1 TP37_38AA mutant (human), sequence (P78508 whole entry, change not shown): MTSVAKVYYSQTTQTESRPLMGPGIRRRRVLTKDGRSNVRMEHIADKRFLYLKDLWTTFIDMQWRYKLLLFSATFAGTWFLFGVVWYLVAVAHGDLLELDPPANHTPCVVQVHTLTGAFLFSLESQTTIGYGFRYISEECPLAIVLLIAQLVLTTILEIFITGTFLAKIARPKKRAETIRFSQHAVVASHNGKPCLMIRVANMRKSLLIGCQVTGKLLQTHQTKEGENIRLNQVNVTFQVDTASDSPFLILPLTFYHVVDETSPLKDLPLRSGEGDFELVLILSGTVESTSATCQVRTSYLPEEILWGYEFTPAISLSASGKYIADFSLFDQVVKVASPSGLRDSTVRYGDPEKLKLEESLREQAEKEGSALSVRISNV

“Human HA-tagged NEDD4-2 (from UniProt Q96PU5-5 1-955) (natural protein)” yielded an interaction in percent of wild-type RER1 (co-IP densitometry) of 30 to 40%.
